Data reported in US6706266, “Oncostatin M antagonists” (SmithKline Beecham Corporation).

Assays:
[1] = biological target: T1, oncostatin M (hOSM, mature) (Homo sapiens) (UniProt P13725); assay: filter; details: 2'-F pyrimidines; no affinity at any concentration tested
T1 sequence: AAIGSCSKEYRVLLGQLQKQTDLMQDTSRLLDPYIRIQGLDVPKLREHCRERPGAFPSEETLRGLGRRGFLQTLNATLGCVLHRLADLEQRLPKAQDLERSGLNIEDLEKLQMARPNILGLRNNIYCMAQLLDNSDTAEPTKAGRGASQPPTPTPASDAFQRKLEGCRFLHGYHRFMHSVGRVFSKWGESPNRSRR

[2] = biological target: T2, oncostatin M (murine OSM) (Mus musculus, UniProt P53347 P53347:23-206); assay: filter; no binding at any concentration tested; details: tags: R&D Systems
T2 sequence: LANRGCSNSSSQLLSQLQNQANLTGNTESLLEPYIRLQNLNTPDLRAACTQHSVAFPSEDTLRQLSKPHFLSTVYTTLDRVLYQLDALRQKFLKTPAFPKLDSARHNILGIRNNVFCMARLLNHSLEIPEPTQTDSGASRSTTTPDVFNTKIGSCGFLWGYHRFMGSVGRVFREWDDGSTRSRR

[3] = biological target: T3, oncostatin M (hOSM, mature) (Homo sapiens, UniProt P13725 SEQ:26-221); assay: filter; SCHMK buffer (1 mM MgCl2, 1 mM CaCl2), 37 C; details: tags: expressed in E. coli as GST fusion, GST removed by thrombin cleavage
T3 sequence: T1 sequence
Experimental: Binding assays were carried out as described (Fitzwater and Polisky supra). […] Transcribed RNA was dephosphorylated using bacterial alkaline phosphatase for 30 min at 65° C. Dephosphorylated RNA was then 5' labelled using polynucleotide kinase and γ-^33P ATP. Radiolabelled RNA was gel purified, and incubated at 37° C. for 30 min with a serial dilution of hOSM in SCHMK buffer (45 μl OSM plus 5 μl radiolabelled RNA at 1000 cpm/μl). […] The filters were washed immediately with 5 ml SCHMK buffer, dried and counted in a liquid scintillation counter. […] The data sets were fitted by the non-linear least squares method using an EXEL software package.

TNF alpha (biotinylated) = TNF alpha (biotinylated) (UniProt P01375 P01375:77-233); assay: competition; no inhibition of TNFalpha binding to TNFR1; details: tags: biotin, NEN; chain copies: 3
Chain of TNF alpha (biotinylated) (P01375 77-233, one chain of several): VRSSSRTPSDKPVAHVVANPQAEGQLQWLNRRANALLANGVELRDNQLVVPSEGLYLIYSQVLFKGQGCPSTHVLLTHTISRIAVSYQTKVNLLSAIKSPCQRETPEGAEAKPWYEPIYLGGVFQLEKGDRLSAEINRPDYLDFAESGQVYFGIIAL
Experimental: Nunc Immunoplates (F6 Maxisorp, Life Technologies) were coated overnight (4° C.) with sheep anti-human IgG (Serolabs) (50 µl/well, 1 µg/ml in PBS). Plates were washed (×6 in PBS 0.05% tween 20, using Skatron Plate washer), tapped dry and blocked to reduce non-specific binding (200µl/well, 1% BSA/PBS). […] As a positive control an anti-TNFR1 monoclonal antibody (R&D Systems) was included. […] Following a 2 h incubation (room temperature on a shaking platform) the plates were washed (×6) and developed using ELISA Amplification System (Life Technologies) according to the manufacturer's instructions and the OD measured at 490 nm.

[4] = biological target: T3, oncostatin M (hOSM, mature); assay: competition; blocks OSM binding to gp130-Fc, ELISA; details: tags: expressed in E. coli as GST fusion, GST removed by thrombin cleavage
Experimental: (§1) Effect of Point Mutations on the Ability of OSM-GST to Compete with Wild Type OSM Binding to gp130-Fc in an ELISA Nunc Immunoplates (F6 Maxisorp, Life Technologies) were coated overnight (4° C.) with wild type OSM (produced according to Example 7a); 50 µl/well, 1 µg/ml in carbonate/bicarbonate buffer pH 9.4). Plates were washed (×6 in PBS 0.05% tween 20, using Skatron Plate washer), tapped dry and blocked to reduce non-specific binding (200 µl/well, 1% BSA/PBS). Following 1 h incubation (room temperature on a shaking platform) the plates were tapped dry and wild type (wt) or mutant OSM-GST from Example 9b added (50 µl/well, 20–0.002 µg/ml, titrated in 1%BSA/PBS). As a positive control polyclonal anti-human OSM antibody (R&D Systems) was also tested (20–0.02 µg/ml). […] Following a 5 h incubation (room temperature on a shaking platform) the plates were washed (×6) and developed using ELISA Amplification System (Life Technologies) as manufacturer's instructions and the OD measured at 490 nm. On each plate the total binding was determined by gp130-Fc/conjugate and OSM in the presence of 1%BSA/PBS, and non-specific binding by gp130-Fc/conjugate in absence of OSM, or conjugate binding to OSM in absence of gp130-Fc. […]

[5] = biological target: T3, oncostatin M (hOSM, mature); assay: competition; little activity in OSM/gp130 ELISA; details: tags: expressed in E. coli as GST fusion, GST removed by thrombin cleavage
Experimental: as §1

GGGAGGACGAUGCGGNNNNNNNNNNNNNNNNNNNNNNNNNNNNNNNNNNNNNNNNCCGCAUCGUCCUCCC [40N7 starting random RNA pool]
Kd [1]: > 10 µM

B1: ADR58 (ssRNA)
RNA: GGGAGGACGAUGCGGAUCGCCCUGAACCGGCCCAGCAGACUGCUGACGGCACGAUCAGACGACUCGCCCGA
modifications: 2'-F C and U (2'-F pyrimidines), 2'-OH purines
binding result [2]: no binding
Kd [3]: 7 nM
binding result (TNF alpha (biotinylated)): no binding
IC50 [4]: ~30 pmol/well

B2: ADR147 (aptamer raised to CD95 ligand) (ssRNA)
RNA: GGGAGGACGAUGCGGUUAUACUAAGCUGCGGUUAGCGACAGCCCUCCCUAGCGCCUCAGACGACUCGCCCGA
modifications: 2'-F pyrimidines
binding result [5]: no binding
